Experimental data reported in the nanobody polyreactivity screen of Harvey et al. (2022).

test: yeast display, Sf9 membrane polyspecificity reagent, FACS + sequencing; frameworks hold sequencing errors
Summary of the method: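 Polyreactivity labels are assigned by the sorting gate from which each nanobody was recovered. The gates were low and high (top ~1%), set on anti-HA fluorescence for expression and streptavidin fluorescence for reagent binding. Before sorting, galactose-induced (36–48 hours) yeast display cells were stained for 1 hour at 4 °C with 10% biotinylated, detergent-solubilized Sf9 membrane reagent.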

Sequence	polyreactivity (PSR sort gate)
QVQLVESGGGLVQAGGSLRLSCAASGSISYRYVMGWYRQAPGKERELVAAITTSGGSTYYADSVKGRFTISRDNAKNTVYLQMNSLKPEDTAVYDCAAKHNVYRYSRYYWGQGTQVTVSS	high polyreactivity
QVQLVESGGGLVQAGGSLRLSCAASGSISYTYAMGWYRQAPGKERELVAAISYSDGITYYADSVKGRFTISRDIAKNTVYLQMNSLKPEDTAVYYCAVEGVYPYYDQSEYDYWGQGTQVTVSS	high polyreactivity
QVQLVESGGGLVQAGGSLRLSCAASGSITPRNAMGWYRQAPGKERELVARISGSGGTTYYADSVKGRFTISRDNAKNTVYLQMKSLKPEDTAVYYCAASVRWNKYTLYDYWGQGTQVTVSS	low polyreactivity
QVQLVESGGGLVQAGGSLRLSCAASGSITSNVMGWYRQAPGKEMELVAAISRGGGSTYYADSVKGRFTISRDNAKNTVYLQMNSLKPEDTAVFYCAADVWGGLLPGYDYWGQGTQVTVSS	high polyreactivity
QVQLVESGGGLVQAGGSLRLSCAASGSIVAYNAMAWYRQAPGKEWELVAAINSGSLTYYADSVTGRFTISRDNAKYTVYLPMNSLKPEDTAVYYCAAEWERWYYRYDYWGQGTQVTVSS	high polyreactivity
QVQLVESGGGLVQAGGSLRLSCAASGSIVDYNAMGGYRQAPGKERELVAAISVNGGNTYYADSVKGRFTISRDYAKNTVYFQMNTLKPEDTAVYYCAADSYGGSKYDYWGQGTQVTLSS	low polyreactivity
QVQLVESGGGLVQAGGSLRLSCAASGSIVGSNAMGWYRQAPGKERELVAAITWSDGSPYYADSVKGRFTISRDNAKNTVYLQMNRLKPEDTAVYVCATDYGYSWYDYWGQGTQVTVSS	low polyreactivity
QVQLVESGGGLVQAGGSLRLSCAASGSIVRRYAMGWYRQAPGKEREFVAAISKRGGGTYYADSVKGRFTISRDNAKNTVYLQMNSLKPEDTAVYYCAAPWRRIGYTTRGYTLYDYWGQGTQVTVSS	high polyreactivity
QVQLVESGGGLVQAGGSLRLSCAASGSIVRYYAMGWYRQAHGKEREFVAAISWSGGSTYYADSVKGRFTISRDNAKKTVYLQRNSLKPEDTAVFFCATTPGVWSTGGTNGFGYWGQGTQVTVSS	high polyreactivity
QVQLVESGGGLVQAGGSLRLSCAASGSIVSYYAMGWYRKAPGKERELVAAISKSGGRTYYADSVKGRFTISRDNAKNTVYLQMNSLKPEDTAVYYCAAPATYKYEYWGQGTQVTVSS	high polyreactivity
QVQLVESGGGLVQAGGSLRLSCAASGSIVVDYAMGWYRQAPGKERELVAAITSTGSTTYADSVKGRFTISRDNAKNTVYLQMNSLKPEDTAVYYCAASFRWYGTVRYPYEMYYWGQGTQVTVSS	low polyreactivity
QVQLVESGGGLVQAGGSLRLSCAASGSIVYVYAMGWYRQAPGKEREVVAAINTSGGSTYADSVKGRFTISRDNAKNTVYLQMNSLKPEDTAVYYCAADGYYEYTWGEYDSWGQGTQVTVSS	low polyreactivity
QVQLVESGGGLVQAGGSLRLSCAASGSIYDFYAMGWYRQAPGKERELVAAISWSGTSTYYADSVKGRFTISRDNAKNTVYLQMNSLKPEDTAVYYCAVVAGQSYFNRYDYWGQGTQVTVSS	low polyreactivity
QVQLVESGGGLVQAGGSLRLSCAASGSIYFTNAMGWYRQAPGKERELVAAIRWRGDRTYYADSVKGRFTISRDNGKNTVYLQMNSLIPEDTAVYYCAVAPSYKITEDSWGQGTQVTVSS	low polyreactivity
QVQLVESGGGLVQAGGSLRLSCAASGSIYGPYAMGLYRQAPGKERELVAAISSGGSTYYADSVKGRFTISRDNAKNTVYLQMNSLKPEDTAVYYCNKYWGFSYLPYDSWGQGTQVTVSS	low polyreactivity
QVQLVESGGGLVQAGGSLRLSCAASGSIYGTNAMGWYRQAPGKERELVSAIDGGSTTYYADSVKGRFTISRDNAKNTVYLQMNSLKPEDTAVYYCAADGTRYLNYEGYAGYEYWGQGTQVTVSS	low polyreactivity
QVQLVESGGGLVQAGGSLRLSCAASGSIYGYVKGWYRPAPGKERELVAAIRRSGGSTYYADSVKGRFTISRDNAKNTVYLQMNSLKPEDTAVYYCAARTYGTDRYYYWGQGTQVTVSS	high polyreactivity
QVQLVESGGGLVQAGGSLRLSCAASGSIYHVYALGWYRQAPGKERELVATISSGGSTYYADSVKGRFTISRDNEKNTVYLQMNSLKPEDTAVYYCNADWFLYGGWYGYGYWGQGTQVTVSS	low polyreactivity
QVQLVESGGGLVQAGGSLRLSCAASGSIYINARGWYRQAPGKERELVAAISSGGSTNYADSVKGRFTISRDNAKNTVYLQMNSLKPEDTAVFYCATRRYRGPWYRNAYDYWGQGTQVTVSS	low polyreactivity
QVQLVESGGGLVQAGGSLRLSCAASGSIYLIYAMGWYRQAPGKERELDAAISRSGGHTYYADSVKGRFTISRDNAKITVYLQMNSLKPEDTAVYYCAAKSYSSGTYGYNYWGQGTQVTVSS	high polyreactivity
QVQLVESGGGLVQAGGSLRLSCAASGSIYLKYAMGWYRQAPGKERELVAAISSRGGSTYYADSVKGRFTISRDNAKNTVYLQMNSLKPEDTAVYYCAAKRWPGTDGYWGQGTQVTVSS	high polyreactivity
QVQLVESGGGLVQAGGSLRLSCAASGSIYLYAMGWYIQAPGKERELVADISFSDGSTYYADSVKGRFTISRDNAKNTVYLQMNSLKPEDTAVYYCAAGVWHHASWDFLEYYYWGQGTQVTVSS	low polyreactivity

Sequence	polyreactivity (PSR sort gate)
QVQLVESGGGLVQAGGSLRLSCAASGSIYQYNAMGWYRQAPGKERELVAAISSRGGITYYADSVKGRFTISRDNAKNTVYLQMNSLKPEDTAVYYCAAEGYYSEVRWYEYWGQGTQVTVSS	high polyreactivity
QVQLVESGGGLVQAGGSLRLSCAASGSIYSRNAMGWYRQAPGKERELVAGISTGGSTNYADSVKGRFTISRDNAKNTVYLQMNSLKPEDTAVYYCAAPLAYEGDYWGQGSQVTVSS	low polyreactivity
QVQLVESGGGLVQAGGSLRLSCAASGSIYTRYPMGWYRQAPGKERELVAAISINGGSTYYADSVKGRFTISRDNAKNTVYLHMNSLKPEDTAVYYCARHYYRWNNFLYLSGYYWGQGSQVTVSS	high polyreactivity
QVQLVESGGGLVQAGGSLRLSCAASGSIYTYYAMGWYRQAPGKEMELVADIRWSGGSTYYADSVKGRFTISRDNAKNTVYLQMNSLKPEDTAVYYCNARYYSYCPIYNFDYWGQGTQVTVSS	low polyreactivity
QVQLVESGGGLVQAGGSLRLSCAASGSIYTYYAMGWYRQAPGKERELVAAINSGGRTNYADSVKGRFTISRDNAKNTVYLQMNSLKPEDTAVYYCAADGSVSYYTYYYWGQGTQVTVSS	low polyreactivity
QVQLVESGGGLVQAGGSLRLSCAASGSIYYNAMGWYRQAPGKERELVASISTGDSTDYADSVKGRFTISRDNAKNTFYLQMNSLKPEDTAVYYCAADTRLGYWDDYWGQGTQVTVSS	low polyreactivity
QVQLVESGGGLVQAGGSLRLSCAASGSIYYRNGMGWYRQAPGKEREFVATITNNGGNTYYADSVKGRFTISRDNAKNTVYLQLNSLKPDDTAVYYCAAGPTWSWGYYYWGQGTQVTVSS	high polyreactivity
QVQLVESGGGLVQAGGSLRLSCAASGSKFWGYAMGWYRKAAGKERELVAAITDSGGRTYYADSVKGRFTISRDNEKNTVYLQMNSLKPEDTAVYYCAADYYSQYYYYAVPDRDYWGQGTQVTVSS	low polyreactivity
QVQLVESGGGLVQAGGSLRLSCAASGSLFYPYAMGWYRQAPGKERELVAAIDLSGGSTYYADAVKGRFTISRDNAKNTVYLQMNSLKPEDTAVYYCAADYGYTYAYDYWGQGTQVTVSS	low polyreactivity
QVQLVESGGGLVQAGGSLRLSCAASGSLFYYYPMGWYRQAPGKERELVATINISDRSTYYADSVKGRFTISRDYAKNTVYLQMNSLKPEDTAVYDCAAYYYFQDYDYWGQGTQVTVSS	low polyreactivity
QVQLVESGGGLVQAGGSLRLSCAASGSLSYTYGMGCYRQAPGKERELVAAISTSGGNTYYADSVKGRFTISRDNAKNSVYLQMNSLKPEDTAVYYCSAYYGRGSIKRYYYWGQGTQVTVSS	high polyreactivity
QVQLVESGGGLVQAGGSLRLSCAASGSMFANNAMGWYRQAPGKERELVAAITSGGNTDNADSVKGRFTISRDNAKYTVYLQMNSLKPEDTAVYYCAAERPPYGYLVVGYVSTQYYYWGQGTQVTVSS	low polyreactivity
QVQLVESGGGLVQAGGSLRLSCAASGSMFIWNAMGWYRQAPGKARELVAAISFTGTSTYYADSVKGRCTSSRDNAKNTVYLQMNSLKPEDTAVYYCNTDYRGSQYDYWVQGTQVTVSS	low polyreactivity
QVQLVESGGGLVQAGGSLRLSCAASGSMFVRYAMGWYRQAPGKERELVAAISSDGNTYYADSVKGRFTISRDNAKNTVYLPRNSLKPEDTAVYYCAAKTRSRYYWGQGTQVTVSS	high polyreactivity
QVQLVESGGGLVQAGGSLRLSCAASGSMFYFYAMGWYRQAPGKERELVAAISWCDGDTYYADSVKGRFTISRDNAKNTVYLQMNSLKPEDSAVYYCAAEGLTRYYQYDYWGQGTQVTVSS	high polyreactivity
QVQLVESGGGLVQAGGSLRLSCAASGSMIAFYVMGLYRQAPGKERELVAAINRGGTNTYYADSVKGRFTISRDNAKNTVYLQMNSLKPEDTAVYYCAADGDRSAQRYTGYYYWGQGTQVTVSS	high polyreactivity
QVQLVESGGGLVQAGGSLRLSCAASGSNFDLNAMGWYRQAPGKERELVAAISSGGGTYYADSVKGRFTISRDNAKTPVYLQMNSLKPEDTAVYYCNRVTRWTYNYWGQGTQVTVSS	high polyreactivity
QVQLVESGGGLVQAGGSLRLSCAASGSNFDYNTMGWYRQAPGKEREFVAAISSSGGGTSYADSVKGRFTISRDNAKNTVYLQMNSLKPEDTAVYYCAALIKLTPYQRQYWKYRAYYYGGQGTQVTVSS	high polyreactivity
QVQLVESGGGLVQAGGSLRLSCAASGSNFDYYAMGWYRQAPGKERELVAAISSTDGSTFYADSVKGRFTISRDNAKNTVYLQMNSLKPEDTAVYYCAVVGYYYPWPNGYDYWGQGTQVTVSS	low polyreactivity
QVQLVESGGGLVQAGGSLRLSCAASGSNFFTNAMGGYRQAPGKERELVAVITKRGGSTYYADSVKGRFTISRDNAKNTVYIQMNSLKPEDTAVYYCAADARQWRYYYWGQGSQVTVSS	high polyreactivity
QVQLVESGGGLVQAGGSLRLSCAASGSNFGDNPMGWYRQAPGKERELVAAISSSGDSTYYADSVKGRFTISRDNAKNTVYLQMNSLKPEDTAVYYCADDRGSTAGSVTYTPGNYWGQGTQVTVSS	low polyreactivity
